Assay results from US20110086089.

What was measured:
[1] = biological target: p27.Pi-S83, p27 pre-phosphorylated in vitro by CK2-alpha-prime at S83
[2] = biological target: p27.Pi-S83/T187, p27 pre-phosphorylated in vitro by CK2-alpha-prime at S83 and T187
[3] = biological target: p27.Pi-T187, p27 pre-phosphorylated in vitro by CK2-alpha-prime at T187
[4] = biological target: p27.S83A (recombinant, His-tagged)
[5] = biological target: p27.T187A (recombinant, His-tagged)
[6] = biological target: p27deltaPi (p27.S83A/T187A; recombinant, His-tagged)
[7] = biological target: phosphomimicking mutant p27.S83D/T187D (recombinant, His-tagged)
[8] = biological target: recombinant His-tagged wt.p27

Sequence of p27.S83A (recombinant, His-tagged) (chain, as listed by the source S83A): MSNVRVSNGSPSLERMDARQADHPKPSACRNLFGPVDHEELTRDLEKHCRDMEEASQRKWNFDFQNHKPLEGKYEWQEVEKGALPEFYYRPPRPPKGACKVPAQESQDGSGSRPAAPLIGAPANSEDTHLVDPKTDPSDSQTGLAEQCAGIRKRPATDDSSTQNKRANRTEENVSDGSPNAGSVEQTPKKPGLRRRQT
Sequence of p27.Pi-T187, p27 pre-phosphorylated in vitro by CK2-alpha-prime at T187 (chain, as listed by the source): as the sequence (chain, as listed by the source S83A) above
Sequence of phosphomimicking mutant p27.S83D/T187D (recombinant, His-tagged) (chain, as listed by the source S83D T187D): as the sequence (chain, as listed by the source S83A) above, with A83D, T187D counted along it
Sequence of p27deltaPi (p27.S83A/T187A; recombinant, His-tagged) (chain, as listed by the source S83A T187A): as the sequence (chain, as listed by the source S83A) above, with T187A counted along it

Protein	recombinant CK2-alpha-prime activity in vitro (32P incorporated into histone H1) [1]	recombinant CK2-alpha-prime activity in vitro (32P incorporated into histone H1) [2]	recombinant CK2-alpha-prime activity in vitro (32P incorporated into histone H1) [3]	reduction in phosphorylation by CK2-alpha-prime [4]	reduction in phosphorylation by CK2-alpha-prime [5]	phosphorylation of p27 in in vitro kinase reactions (32P incorporated into p27) [6]	recombinant CK2-alpha-prime activity in vitro (32P incorporated into histone H1) [7]	phosphorylation of p27 in in vitro kinase reactions (32P incorporated into p27) [8]	recombinant CK2-alpha-prime activity in vitro (32P incorporated into histone H1) [8]
recombinant active His-tagged CK2-alpha-prime/beta (protein) chain 1: MPGPAAGSRARVYAEVNSLRSREYWDYEAHVPSWGNQDDYQLVRKLGRGKYSEVFEAINITNNERVVVKILKPVKKKKIKREVKILENLRGGTNIIKLIDTVKDPVSKTPALVFEYINNTDFKQLYQILTDFDIRFYMYELLKALDYCHSKGIMHRDVKPHNVMIDHQQKKLRLIDWGLAEFYHPAQEYNVRVASRYFKGPELLVDYQMYDYSLDMWSLGCMLASMIFRREPFFHGQDNYDQLVRIAKVLGTEELYGYLKKYHIDLDPHFNDILGQHSRKRWENFIHSENRHLVSPEALDLLDKLLRYDHQQRLTAKEAMEHPYFYPVVKEQSQPCADNAVLSSGLTAAR chain 2: not shown	an incremental loss of p27 inhibitory activity towards CK2-alpha-prime when compared to wt.p27	Simultaneous phosphorylation of S83/T187 in p27.Pi-S83/T187 or introducing phosphomimicking mutations in p27.S83D/T187D abolished the ability of p27 to inhibit CK2-alpha-prime	an incremental loss of p27 inhibitory activity towards CK2-alpha-prime when compared to wt.p27	The S83A and T187A point mutants exhibited a 68% and 27% reduction in phosphorylation by CK2-alpha-prime, respectively	The S83A and T187A point mutants exhibited a 68% and 27% reduction in phosphorylation by CK2-alpha-prime, respectively	CK2-alpha-prime failed to phosphorylate p27deltaPi containing double-substituted mutations (S83A/T187A)	Simultaneous phosphorylation of S83/T187 in p27.Pi-S83/T187 or introducing phosphomimicking mutations in p27.S83D/T187D abolished the ability of p27 to inhibit CK2-alpha-prime	Wt.p27 was phosphorylated by CK2-alpha-prime	Wt.p27 completely inhibited recombinant CK2-alpha-prime activity in vitro
catalytically-inactive kinase-dead CK2-alpha-prime (kd.CK2-alpha-prime), K69M (protein) MPGPAAGSRARVYAEVNSLRSREYWDYEAHVPSWGNQDDYQLVRKLGRGKYSEVFEAINITNNERVVVMILKPVKKKKIKREVKILENLRGGTNIIKLIDTVKDPVSKTPALVFEYINNTDFKQLYQILTDFDIRFYMYELLKALDYCHSKGIMHRDVKPHNVMIDHQQKKLRLIDWGLAEFYHPAQEYNVRVASRYFKGPELLVDYQMYDYSLDMWSLGCMLASMIFRREPFFHGQDNYDQLVRIAKVLGTEELYGYLKKYHIDLDPHFNDILGQHSRKRWENFIHSENRHLVSPEALDLLDKLLRYDHQQRLTAKEAMEHPYFYPVVKEQSQPCADNAVLSSGLTAAR								Wt.p27 was phosphorylated by CK2-alpha-prime but not catalytically-inactive kinase-dead CK2-alpha-prime (kd. CK2-alpha-prime)	
